# T1: human beta-Klotho (human, UniProt Q86Z14 1-1044)
# T1 sequence (looked up): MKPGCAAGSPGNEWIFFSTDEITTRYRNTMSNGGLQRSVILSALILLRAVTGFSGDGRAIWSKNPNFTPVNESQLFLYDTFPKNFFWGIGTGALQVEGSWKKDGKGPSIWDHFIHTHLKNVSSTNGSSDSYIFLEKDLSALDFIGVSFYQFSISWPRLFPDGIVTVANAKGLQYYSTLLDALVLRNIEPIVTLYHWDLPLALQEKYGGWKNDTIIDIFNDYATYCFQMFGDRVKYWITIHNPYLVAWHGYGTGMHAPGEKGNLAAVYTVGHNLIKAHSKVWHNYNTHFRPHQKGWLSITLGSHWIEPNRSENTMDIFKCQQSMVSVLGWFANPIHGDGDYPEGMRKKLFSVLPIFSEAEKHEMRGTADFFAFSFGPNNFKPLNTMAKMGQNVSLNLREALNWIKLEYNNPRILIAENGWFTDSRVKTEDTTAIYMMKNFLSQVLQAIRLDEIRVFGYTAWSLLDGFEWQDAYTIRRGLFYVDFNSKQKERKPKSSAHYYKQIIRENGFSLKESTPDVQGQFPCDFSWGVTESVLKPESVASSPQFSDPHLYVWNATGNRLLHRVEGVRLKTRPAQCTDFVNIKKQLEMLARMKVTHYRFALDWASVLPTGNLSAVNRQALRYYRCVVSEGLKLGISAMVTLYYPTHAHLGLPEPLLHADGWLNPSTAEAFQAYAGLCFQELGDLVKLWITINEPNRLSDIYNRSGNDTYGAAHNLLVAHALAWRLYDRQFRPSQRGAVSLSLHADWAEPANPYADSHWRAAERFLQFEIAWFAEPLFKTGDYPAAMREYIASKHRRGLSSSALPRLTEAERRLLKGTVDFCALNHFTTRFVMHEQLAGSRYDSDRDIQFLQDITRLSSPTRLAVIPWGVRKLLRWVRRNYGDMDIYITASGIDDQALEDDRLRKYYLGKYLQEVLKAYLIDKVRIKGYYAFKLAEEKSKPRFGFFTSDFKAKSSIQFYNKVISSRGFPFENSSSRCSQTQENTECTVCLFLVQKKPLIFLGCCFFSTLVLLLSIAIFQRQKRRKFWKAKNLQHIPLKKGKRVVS
# Target: T1, human beta-Klotho
# Assay: cell-based or functional assay
row,pERK-HEK293-Beta-klotho without HSA [EC50 (nM)] Median Value,Binder
1,100 nM,(M168A) Met-FGF21 (ligand) MHPIPDSSPLLQFGGQVRQRYLYTDDAQQTEAHLEIREDGTVGGAADQSPESLLQLKALKPGVIQILGVKTSRFLCQRPDGALYGSLHFDPEACSFRELLLEDGYNVYQSEAHGLPLHLPGNKSPHRDPAPRGPARFLPLPGLPPALPEPPGILAPQPPDVGSSDPLSAVGPSQGRSPSYAS
2,4.8 nM,"S71C Met-FGF21 derivative of Example 13 (ligand, S-71-[1-(2-{2-[2-(2-{2-[2-(2-{2-[(S)-4-carboxy-4-(17-carboxy-heptadecanoylamino)-butyrylamino]-ethoxy}-ethoxy)-acetylamino]-ethoxy}-ethoxy)-acetylamino]-ethylcarbamoyl}-ethyl)-2,5-dioxo-pyrrolidin-3-yl] on the thiol of Cys71) MHPIPDSSPLLQFGGQVRQRYLYTDDAQQTEAHLEIREDGTVGGAADQSPESLLQLKALKPGVIQILGVKTCRFLCQRPDGALYGSLHFDPEACSFRELLLEDGYNVYQSEAHGLPLHLPGNKSPHRDPAPRGPARFLPLPGLPPALPEPPGILAPQPPDVGSSDPLSMVGPSQGRSPSYAS"
3,2.2 nM,Q27E Met-FGF21 (ligand) MHPIPDSSPLLQFGGQVRQRYLYTDDAEQTEAHLEIREDGTVGGAADQSPESLLQLKALKPGVIQILGVKTSRFLCQRPDGALYGSLHFDPEACSFRELLLEDGYNVYQSEAHGLPLHLPGNKSPHRDPAPRGPARFLPLPGLPPALPEPPGILAPQPPDVGSSDPLSMVGPSQGRSPSYAS
4,6.7 nM,(D24K) Met-FGF21 (ligand) MHPIPDSSPLLQFGGQVRQRYLYTKDAQQTEAHLEIREDGTVGGAADQSPESLLQLKALKPGVIQILGVKTSRFLCQRPDGALYGSLHFDPEACSFRELLLEDGYNVYQSEAHGLPLHLPGNKSPHRDPAPRGPARFLPLPGLPPALPEPPGILAPQPPDVGSSDPLSMVGPSQGRSPSYAS
5,1 nM,"(Q28R, A31 E) Met-FGF21 (ligand) MHPIPDSSPLLQFGGQVRQRYLYTDDAQRTEEHLEIREDGTVGGAADQSPESLLQLKALKPGVIQILGVKTSRFLCQRPDGALYGSLHFDPEACSFRELLLEDGYNVYQSEAHGLPLHLPGNKSPHRDPAPRGPARFLPLPGLPPALPEPPGILAPQPPDVGSSDPLSMVGPSQGRSPSYAS"
6,100 nM,(M168S) Ser-FGF21 (ligand) SHPIPDSSPLLQFGGQVRQRYLYTDDAQQTEAHLEIREDGTVGGAADQSPESLLQLKALKPGVIQILGVKTSRFLCQRPDGALYGSLHFDPEACSFRELLLEDGYNVYQSEAHGLPLHLPGNKSPHRDPAPRGPARFLPLPGLPPALPEPPGILAPQPPDVGSSDPLSSVGPSQGRSPSYAS
7,1.4 nM,"(K56R, K59R, K69R, K122R) Met-FGF21 derivative of Example 7 (ligand, N-alpha-1-[2-(2-{2-[2-(2-{2-[(S)-4-carboxy-4-(17-carboxy-heptadecanoylamino)-butyrylamino]-ethoxy}-ethoxy)-acetylamino]-ethoxy}-ethoxy)-acetyl] on the alpha amino group of the N-terminal Met) MHPIPDSSPLLQFGGQVRQRYLYTDDAQQTEAHLEIREDGTVGGAADQSPESLLQLRALRPGVIQILGVRTSRFLCQRPDGALYGSLHFDPEACSFRELLLEDGYNVYQSEAHGLPLHLPGNRSPHRDPAPRGPARFLPLPGLPPALPEPPGILAPQPPDVGSSDPLSMVGPSQGRSPSYAS"
8,4.7 nM,A26E Met-FGF21 (ligand) MHPIPDSSPLLQFGGQVRQRYLYTDDEQQTEAHLEIREDGTVGGAADQSPESLLQLKALKPGVIQILGVKTSRFLCQRPDGALYGSLHFDPEACSFRELLLEDGYNVYQSEAHGLPLHLPGNKSPHRDPAPRGPARFLPLPGLPPALPEPPGILAPQPPDVGSSDPLSMVGPSQGRSPSYAS
9,3 nM,S71C Met-FGF21 (ligand) MHPIPDSSPLLQFGGQVRQRYLYTDDAQQTEAHLEIREDGTVGGAADQSPESLLQLKALKPGVIQILGVKTCRFLCQRPDGALYGSLHFDPEACSFRELLLEDGYNVYQSEAHGLPLHLPGNKSPHRDPAPRGPARFLPLPGLPPALPEPPGILAPQPPDVGSSDPLSMVGPSQGRSPSYAS
10,1.1 nM,"S71C Met-FGF21 derivative of Example 5 (ligand, S-71-[1-(2-{2-[2-(2-{2-[2-(2-{2-[(S)-4-carboxy-4-(19-carboxy-nonadecanoylamino)-butyrylamino]-ethoxy}-ethoxy)-acetylamino]-ethoxy}-ethoxy)-acetylamino]-ethylcarbamoyl}-ethyl)-2,5-dioxo-pyrrolidin-3-yl] on the thiol of Cys71) MHPIPDSSPLLQFGGQVRQRYLYTDDAQQTEAHLEIREDGTVGGAADQSPESLLQLKALKPGVIQILGVKTCRFLCQRPDGALYGSLHFDPEACSFRELLLEDGYNVYQSEAHGLPLHLPGNKSPHRDPAPRGPARFLPLPGLPPALPEPPGILAPQPPDVGSSDPLSMVGPSQGRSPSYAS"
11,2.9 nM,"S71C Met-FGF21 derivative of Example 14 (ligand, S-71-({2-[2-(2-{2-[2-(2-{2-[(S)-4-carboxy-4-(17-carboxy-heptadecanoylamino)-butyrylamino]-ethoxy}-ethoxy)-acetylamino]-ethoxy}-ethoxy)-acetylamino]-ethylcarbamoyl}-methyl) on the thiol of Cys71) MHPIPDSSPLLQFGGQVRQRYLYTDDAQQTEAHLEIREDGTVGGAADQSPESLLQLKALKPGVIQILGVKTCRFLCQRPDGALYGSLHFDPEACSFRELLLEDGYNVYQSEAHGLPLHLPGNKSPHRDPAPRGPARFLPLPGLPPALPEPPGILAPQPPDVGSSDPLSMVGPSQGRSPSYAS"
12,1.5 nM,"S71C Met-FGF21 derivative of Examples 6 and 12 (ligand, S-71-({2-[2-(2-{2-[2-(2-{2-[(S)-4-carboxy-4-(19-carboxy-nonadecanoylamino)-butyrylamino]-ethoxy}-ethoxy)-acetylamino]-ethoxy}-ethoxy)-acetylamino]-ethylcarbamoyl}-methyl) on the thiol of Cys71) MHPIPDSSPLLQFGGQVRQRYLYTDDAQQTEAHLEIREDGTVGGAADQSPESLLQLKALKPGVIQILGVKTCRFLCQRPDGALYGSLHFDPEACSFRELLLEDGYNVYQSEAHGLPLHLPGNKSPHRDPAPRGPARFLPLPGLPPALPEPPGILAPQPPDVGSSDPLSMVGPSQGRSPSYAS"
13,100 nM,(M168S) Met-FGF21 (ligand) MHPIPDSSPLLQFGGQVRQRYLYTDDAQQTEAHLEIREDGTVGGAADQSPESLLQLKALKPGVIQILGVKTSRFLCQRPDGALYGSLHFDPEACSFRELLLEDGYNVYQSEAHGLPLHLPGNKSPHRDPAPRGPARFLPLPGLPPALPEPPGILAPQPPDVGSSDPLSSVGPSQGRSPSYAS
14,5.9 nM,"(179F, 180E, 181R) Met-FGF21 (ligand) MHPIPDSSPLLQFGGQVRQRYLYTDDAQQTEAHLEIREDGTVGGAADQSPESLLQLKALKPGVIQILGVKTSRFLCQRPDGALYGSLHFDPEACSFRELLLEDGYNVYQSEAHGLPLHLPGNKSPHRDPAPRGPARFLPLPGLPPALPEPPGILAPQPPDVGSSDPLSMVGPSQGRSPSFER"
15,1.4 nM,M168L Met-FGF21 (ligand) MHPIPDSSPLLQFGGQVRQRYLYTDDAQQTEAHLEIREDGTVGGAADQSPESLLQLKALKPGVIQILGVKTSRFLCQRPDGALYGSLHFDPEACSFRELLLEDGYNVYQSEAHGLPLHLPGNKSPHRDPAPRGPARFLPLPGLPPALPEPPGILAPQPPDVGSSDPLSLVGPSQGRSPSYAS
16,3.3 nM,"(S71C, D102E, N121Q, L166F, S167G, M168L, 169aT, P171L, S172E, Q173A, G174V, Y179F, A180E, S181K) Ala-FGF21 (ligand) AHPIPDSSPLLQFGGQVRQRYLYTDDAQQTEAHLEIREDGTVGGAADQSPESLLQLKALKPGVIQILGVKTCRFLCQRPDGALYGSLHFDPEACSFRELLLEEGYNVYQSEAHGLPLHLPGQKSPHRDPAPRGPARFLPLPGLPPALPEPPGILAPQPPDVGSSDPFGLVTGLEAVRSPSFEK"
17,2 nM,"(S71C, N121Q, L166F, S167G, M168L, 169aT, P171L, S172E, Q173A, G174V, Y179F, A180E, S181K) Ala-FGF21 (ligand) AHPIPDSSPLLQFGGQVRQRYLYTDDAQQTEAHLEIREDGTVGGAADQSPESLLQLKALKPGVIQILGVKTCRFLCQRPDGALYGSLHFDPEACSFRELLLEDGYNVYQSEAHGLPLHLPGQKSPHRDPAPRGPARFLPLPGLPPALPEPPGILAPQPPDVGSSDPFGLVTGLEAVRSPSFEK"
18,3.9 nM,"(169aT, 171L, 172E, 173A, 174V, 179F, 180E, 181K) Met-FGF21 (ligand) MHPIPDSSPLLQFGGQVRQRYLYTDDAQQTEAHLEIREDGTVGGAADQSPESLLQLKALKPGVIQILGVKTSRFLCQRPDGALYGSLHFDPEACSFRELLLEDGYNVYQSEAHGLPLHLPGNKSPHRDPAPRGPARFLPLPGLPPALPEPPGILAPQPPDVGSSDPLSMVTGLEAVRSPSFEK"
19,3.8 nM,"(K56R, K59R, K69R, K122R, L166F, S167G, M168L, 169aT, P171L, S172E, Q173A, G174V, Y179F, A180E, S181R) Ser-FGF21 (ligand) SHPIPDSSPLLQFGGQVRQRYLYTDDAQQTEAHLEIREDGTVGGAADQSPESLLQLRALRPGVIQILGVRTSRFLCQRPDGALYGSLHFDPEACSFRELLLEDGYNVYQSEAHGLPLHLPGNRSPHRDPAPRGPARFLPLPGLPPALPEPPGILAPQPPDVGSSDPFGLVTGLEAVRSPSFER"
20,1 nM,"(L166F, S167G, M168L, 169aT, P171L, S172E, Q173A, G174V, Y179F, A180E, S181K) Ser-FGF21 (ligand) SHPIPDSSPLLQFGGQVRQRYLYTDDAQQTEAHLEIREDGTVGGAADQSPESLLQLKALKPGVIQILGVKTSRFLCQRPDGALYGSLHFDPEACSFRELLLEDGYNVYQSEAHGLPLHLPGNKSPHRDPAPRGPARFLPLPGLPPALPEPPGILAPQPPDVGSSDPFGLVTGLEAVRSPSFEK"
21,1 nM,(des N121) Met-FGF21 (ligand) MHPIPDSSPLLQFGGQVRQRYLYTDDAQQTEAHLEIREDGTVGGAADQSPESLLQLKALKPGVIQILGVKTSRFLCQRPDGALYGSLHFDPEACSFRELLLEDGYNVYQSEAHGLPLHLPGKSPHRDPAPRGPARFLPLPGLPPALPEPPGILAPQPPDVGSSDPLSMVGPSQGRSPSYAS
